Reference: PMC8294587, “Intrinsic differences in the mechanisms of Tie2 binding to angiopoietins exploited by directed evolution to create an Ang2-selective ligand trap” (The Journal of Biological Chemistry, 2021)

B1: wild-type Tie2 ectodomain-Fc [human] / Angiopoietin-1 [not stated] (parent complex)
chain 1: AMDLILINSLPLVSDAETSLTCIASGWRPHEPITIGRDFEALMNQHQDPLEVTQDVTREWAKKVVWKREKASKINGAYFCEGRVRGEAIRIRTMKMRQQASFLPATLTMTVDKGDNVNISFKKVLIKEEDAVIYKNGSFIHSVPRHEVPDILEVHLPHAQPQDAGVYSARYIGGNLFTSAFTRLIVRRCEAQKWGPECNHLCTACMNNGVCHEDTGECICPPGFMGRTCEKACELHTFGRTCKERCSGQEGCKSYVFCLPDPYGCSCATGWKGLQCNEACHPGFYGPDCKLRCSCNNGEMCDRFQGCLCSPGWQGLQCEREGIQRMTPKIVDLPDHIEVNSGKFNPICKASGWPLPTNEEMTLVKPDGTVLHPKDFNHTDHFSVAIFTIHRILPPDSGVWVCSVNTVAGMVEKPFNISVK
chain 2: HIGCSNQRRSPENSGRRYNRIQHGQCAYTFILPEHDGNCRESTTDQYNTNALQRDAPHVEPDFSSQKLQHLEHVMENYTQWLQKLENYIVENMKSEMAQIQQNAVQNHTATMLEIGTSLLSQTAEQTRKLTDVETQVLNQTSRLEIQLLENSLSTYKLEKQLLQQTNEILKIHEKNSLLEHKILEMEGKHKEELDTLKEEKENLQGLVTRQTYIIQELEKQLNRATTNNSVLQKQQLELMDTVHNLVNLCTKEGVLLKGGKREEEKPFRDCADVYQAGFNKSGIYTIYINNMPEPKKVFCNMDVNGGGWTVIQHREDGSLDFQRGWKEYKMGFGNPSGEYWLGNEFIFAITSQRQYMLRIELMDWEGNRAYSQYDRFHIGNEKQNYRLYLKGHTGTAGKQSSLILHGADFSTKDADNDNCMCKCALMLTGGWWFDACGPSNLNGMFYTAGQNHGKLNGIKWHYFKGPSYSLRSTTMMIRPLDF
B2: wild-type Tie2 ectodomain-Fc [human] / Angiopoietin-2 [not stated] (parent complex)
chain 1: B1 chain 1
chain 2: YNNFRKSMDSIGKKQYQVQHGSCSYTFLLPEMDNCRSSSSPYVSNAVQRDAPLEYDDSVQRLQVLENIMENNTQWLMKLENYIQDNMKKEMVEIQQNAVQNQTAVMIEIGTNLLNQTAEQTRKLTDVEAQVLNQTTRLELQLLEHSLSTNKLEKQILDQTSEINKLQDKNSFLEKKVLAMEDKHIIQLQSIKEEKDQLQVLVSKQNSIIEELEKKIVTATVNNSVLQKQQHDLMETVNNLLTMMSTSNSAKDPTVAKEEQISFRDCAEVFKSGHTTNGIYTLTFPNSTEEIKAYCDMEAGGGGWTIIQRREDGSVDFQRTWKEYKVGFGNPSGEYWLGNEFVSQLTNQQRYVLKIHLKDWEGNEAYSLYEHFYLSSEELNYRIHLKGLTGTAGKISSISQPGNDFSTKDGDNDKCICKCSQMLTGGWWFDACGPSNLNGMYYPQRQNTNKFNGIKWYYWKGSGYSLKATTMMIRPADF

Variants of: B1
Assay: ELISA (named by the earlier reader; legend does not name the assay); mutant read at its highest concentration point, about 300 nM Tie2 ectodomain; parent value is the wild-type curve's highest concentration point, about 30-50 nM; parent: 1; read off a plot

Row | Variant | response
1 | chain 1 AMDLILINSLPLVSDAETSLTCIASGWRPHEPITIGRDFEALMNQHQDPLEVTQDVTREWAKKVVWKREKASKINGAYFCEGRVRGEAIRIRTMKMRQQASFLPATLTMTVDKGDNVNISFKKVLIKEEDAVIYKNGSFIHSVPAAEVPDILEVHLPHAQPQDAGVYSARYIGGNLFTSAFTRLIVRRCEAQKWGPECNHLCTACMNNGVCHEDTGECICPPGFMGRTCEKACELHTFGRTCKERCSGQEGCKSYVFCLPDPYGCSCATGWKGLQCNEACHPGFYGPDCKLRCSCNNGEMCDRFQGCLCSPGWQGLQCEREGIQRMTPKIVDLPDHIEVNSGKFNPICKASGWPLPTNEEMTLVKPDGTVLHPKDFNHTDHFSVAIFTIHRILPPDSGVWVCSVNTVAGMVEKPFNISVK [chain 1 R145A, chain 1 H146A] | ~0.88 AU

Variants of: B1
Assay: ELISA (named by the earlier reader; legend does not name the assay); mutant read at its highest concentration point, about 300 nM Tie2 ectodomain; parent value is the wild-type curve's highest concentration point, about 50-100 nM; parent: …; read off a plot

Row | Variant | response
2 | chain 1 AMDLILINSLPLVSDAETSLTCIASGWRPHEPITIGRDFEALMNQHQDPLEVTQDVTREWAKKVVWKREKASKINGAYFCEGRVRGEAIRIRTMKMRQQASFLPATLTMTVDKGDNVNISFKKVLIKEEDAVIYKNGSFIHSVPAAAVPDILEVHLPHAQPQDAGVYSARYIGGNLFTSAFTRLIVRRCEAQKWGPECNHLCTACMNNGVCHEDTGECICPPGFMGRTCEKACELHTFGRTCKERCSGQEGCKSYVFCLPDPYGCSCATGWKGLQCNEACHPGFYGPDCKLRCSCNNGEMCDRFQGCLCSPGWQGLQCEREGIQRMTPKIVDLPDHIEVNSGKFNPICKASGWPLPTNEEMTLVKPDGTVLHPKDFNHTDHFSVAIFTIHRILPPDSGVWVCSVNTVAGMVEKPFNISVK [chain 1 R145A, chain 1 H146A, chain 1 E147A] | ~0.09 AU

Variants of: B2
Assay: ELISA (named by the earlier reader; legend does not name the assay); mutant read at its highest concentration point, about 300 nM Tie2 ectodomain; parent value is the wild-type curve's highest concentration point, about 50 nM; parent: 1; read off a plot

Row | Variant | response
3 | chain 1 AMDLILINSLPLVSDAETSLTCIASGWRPHEPITIGRDFEALMNQHQDPLEVTQDVTREWAKKVVWKREKASKINGAYFCEGRVRGEAIRIRTMKMRQQASFLPATLTMTVDKGDNVNISFKKVLIKEEDAVIYKNGSFIHSVPAAEVPDILEVHLPHAQPQDAGVYSARYIGGNLFTSAFTRLIVRRCEAQKWGPECNHLCTACMNNGVCHEDTGECICPPGFMGRTCEKACELHTFGRTCKERCSGQEGCKSYVFCLPDPYGCSCATGWKGLQCNEACHPGFYGPDCKLRCSCNNGEMCDRFQGCLCSPGWQGLQCEREGIQRMTPKIVDLPDHIEVNSGKFNPICKASGWPLPTNEEMTLVKPDGTVLHPKDFNHTDHFSVAIFTIHRILPPDSGVWVCSVNTVAGMVEKPFNISVK [chain 1 R145A, chain 1 H146A] | ~1 AU

Variants of: B2
Assay: ELISA (named by the earlier reader; legend does not name the assay); mutant read at its highest concentration point, about 300 nM Tie2 ectodomain; parent value is the wild-type curve's highest concentration point, about 50 nM; parent: 0.9; read off a plot

Row | Variant | response
4 | chain 1 AMDLILINSLPLVSDAETSLTCIASGWRPHEPITIGRDFEALMNQHQDPLEVTQDVTREWAKKVVWKREKASKINGAYFCEGRVRGEAIRIRTMKMRQQASFLPATLTMTVDKGDNVNISFKKVLIKEEDAVIYKNGSFIHSVPAAAVPDILEVHLPHAQPQDAGVYSARYIGGNLFTSAFTRLIVRRCEAQKWGPECNHLCTACMNNGVCHEDTGECICPPGFMGRTCEKACELHTFGRTCKERCSGQEGCKSYVFCLPDPYGCSCATGWKGLQCNEACHPGFYGPDCKLRCSCNNGEMCDRFQGCLCSPGWQGLQCEREGIQRMTPKIVDLPDHIEVNSGKFNPICKASGWPLPTNEEMTLVKPDGTVLHPKDFNHTDHFSVAIFTIHRILPPDSGVWVCSVNTVAGMVEKPFNISVK [chain 1 R145A, chain 1 H146A, chain 1 E147A] | ~0.58 AU
